# Results: publication PMC12501226
# What was measured:
# Assay in all cases: SEC
# [1] = target: T1A (collagen XVIII trimerization domain, 1-residue G/S linker, ACE2 18-615) (human) (UniProt P39060)
# [2] = target: T3A (collagen XVIII trimerization domain, 3-residue G/S linker, ACE2 18-615) (human) (UniProt P39060)
# [3] = target: T5A (collagen XVIII trimerization domain, 5-residue G/S linker, ACE2 18-615) (human) (UniProt P39060)
# [4] = target: T18A (collagen XVIII trimerization domain, 18-residue G/S linker, ACE2 18-615) (human) (UniProt P39060)
substance,measurement,setting,value
"T1A (collagen XVIII trimerization domain, 1-residue G/S linker, ACE2 18-615) (from UniProt P39060;Q9BYF1)",stoichiometry N,[1],3
"T3A (collagen XVIII trimerization domain, 3-residue G/S linker, ACE2 18-615) (from UniProt P39060;Q9BYF1)",stoichiometry N,[2],3
"T5A (collagen XVIII trimerization domain, 5-residue G/S linker, ACE2 18-615) (from UniProt P39060;Q9BYF1)",stoichiometry N,[3],3
"T18A (collagen XVIII trimerization domain, 18-residue G/S linker, ACE2 18-615) (from UniProt P39060;Q9BYF1)",stoichiometry N,[4],3
